Test results taken from patent publication US20250340623A1 (AC IMMUNE, published 2025).

Key:
[1] = target: T1, alpha-synuclein seeds (UniProt P37840 1-140); assay: cell-based or functional assay
[2] = target: T2, monomeric alpha-synuclein (UniProt P37840 1-140); assay: SPR, captured bAb; head says nM, kd/ka gives M
Description: (§1) Any non-covalently bound antibodies were removed by three successive regenerations of 10 mM Glycine pH 1.7 (GE Healthcare, 28-9950-84). Immobilization levels were evaluated following ethanolamine capping (Bound) and finally following regeneration (Final). Non-covalent immobilization of alpha-synuclein biparatopic antibodies on flow cell 2 of channels 1-8 was performed at a final concentration of 5 μg/mL, diluted in 10 mM sodium acetate pH 5.5 (GE Healthcare, BR-1003-52). Non-covalent immobilization of an isotype control antibody on flow cell 1 of channels 1-8 was performed at a final concentration of 5 μg/mL, diluted in 10 mM sodium acetate pH 5.5 (GE Healthcare, BR-1003-52).
(§2) Binding affinity of alpha-synuclein biparatopic antibodies to monomeric or fibrillar alpha-synuclein species was performed using a single-cycle kinetics method. The instrument was primed with 1×HBS-P+ buffer (10× stock from GE Healthcare, BR-1003-52 diluted in Milli-Q water). Injections of monomeric alpha-synuclein (Boston Biochem, SP-485), increasing in concentration from 0.62-50 nM prepared from serial 2-fold dilutions, were performed with contact times of 300 sec/injection at a flow rate of 30 μL/min. A dissociation phase of 900 sec followed the final 50 nM injection. Regeneration of the sensor to the goat anti-human antibody layer was achieved using 3 regenerations of 10 mM Glycine pH 1.7. […] Regeneration of the sensor to the goat anti-mouse antibody layer was achieved using 3 regenerations of 10 mM Glycine pH 1.7. Results obtained from single-cycle kinetics were evaluated by Biacore 8K evaluation software with 1:1 binding homogenous Langmuir model with a preceeding buffer injection as a blank subtraction. The following kinetic parameters were obtained: on-rate (ka), off-rate (kd), affinity constant (KD, ratio of kd by ka), maximum response (Rmax), and goodness of fit (Chi2).
(§3) Kinetic constants were determined from 1:1 homogenous binding models for all cases.

[3] = target: T3, alpha-synuclein fibrils (UniProt P37840 1-140); assay: SPR, captured bAb; head says nM, kd/ka gives M
Description: as §1, §2, §3

[4] = target: T3, alpha-synuclein fibrils; assay: SPR, captured bAb
Description: as §2

[5] = target: T2, monomeric alpha-synuclein; assay: SPR, captured bAb
Description: as §1, §2, §3

[6] = target: T3, alpha-synuclein fibrils; assay: SPR, captured bAb; remark: listed apart in the source
Description: as §1, §2, §3

[7] = target: T1, alpha-synuclein seeds; assay: cell-based or functional assay; remark: listed apart in the source

B1: Fab ACI-7067-1108H1-Ab1 (Fab, V domains shown)
VH: EVKLVESGGGLVQPGGSMKLSCTASGFTFSDAWMNWVRQSPEKGLEWVAEIRNKAHNHATNYAESVKGRFTISGDDSKSSVYLQMNNLRAEDTGIYYCTIYSFWGQGTLVTVSA
VL: SIVMTQTPKFLLVSAGDRVTITCKASQSVTNYVAWYHQKPGQSPKLLIYSASNRYSGVPDRFTGSGYGTDFTFTINTVQTEDLAVYFCQQDYRIPYTFGGGTKLEIK
[1]
  aggregation half-time (τ1/2) of seeded alpha-synuclein aggregation, ThT; no antibody 18.0 hours: 19.4 h

B2: Fab ACI-7067-1101C8-Ab2 (Fab, V domains shown)
VH: EVQLVESGGGLVQPKGSLKLSCAASGFSFNIYAMNWVRQAPGKGLEWVARIRSKSNNYATYYADSVKDRFTISRADSESMLYLQMNNLKTEDTAMYYCVRVGLRFYAMDYWGQGTSVTVSS
VL: DVLMTQTPLSLPVSLGDQASISCRSSQSIVHSNGNTYLEWYLQKPGQSPKLLIYKVSNRFSGVPDRFSGSGSGTDFTLKISRVEAEDLGVYYCFQGSQGPLTFGAGTKLELK
[1]
  aggregation half-time (τ1/2) of seeded alpha-synuclein aggregation, ThT; no antibody 18.0 hours: 26.3 h

B3: ACI-2503C6_1101C8 (bispecific antibody, V domains shown)
VH 1: DVQLQESGPGLVKPSQSLSLTCSVTGYSITSGYYWNWIRLFPGNKLEWLGYINYDGSNNFNPSLKNRISITRDTSKNQFFLKLNSVTSEDTATYFCLRGDWDWGQGTLVTVSA
VL 1: not shown
VH 2: EVQLVESGGGLVQPKGSLKLSCAASGFSFNIYAMNWVRQAPGKGLEWVARIRSKSNNYATYYADSVKDRFTISRADSESMLYLQMNNLKTEDTAMYYCVRVGLRFYAMDYWGQGTSVTVSS
VL 2: DVLMTQTPLSLPVSLGDQASISCRSSQSIVHSNGNTYLEWYLQKPGQSPKLLIYKVSNRFSGVPDRFSGSGSGTDFTLKISRVEAEDLGVYYCFQGSQGPLTFGAGTKLELK
notes: biparatopic; Arm A ACI-7079-2503C6-Ab1, Arm B ACI-7067-1101C8-Ab2; engineered constant domains not specified
[2]
  Kd: 1.14 nM
[3]
  Kd: 0.00248 nM
[4]
  fold slower dissociation rate (Kd) from fibrillar than from monomeric alpha-synuclein: ≥ 100 fold
[5]
  koff: 0.00025 s⁻¹
  kon: 220000 M⁻¹ s⁻¹
[6]
  koff: 1.53e-07 s⁻¹
  kon: 61600 M⁻¹ s⁻¹

B4: Fab ACI-7067-1113D10-Ab1 (Fab, V domains shown)
VH: EVQLVESGGGLVQPKGSLKLSCAASGFTFNTYALHWVRQAPGKGLEWVARIRSKSSNYATYYADSVKDRFTISRDDSQSMLYLQMNNLKTEDTGMYYCVRGGVSPFDYWGQGTTLTVSS
VL: QIVLTQSPAIMSASPGEKVTMTCSASSSVSYMHWYQQKSGTSPKRWIYDTSKLASGVPARFSGSGSGTSYSLTISSMEAEDSATYYCQQWSNNPPTFGGGTKLEIK
[1]
  aggregation half-time (τ1/2) of seeded alpha-synuclein aggregation, ThT; no antibody 18.0 hours: 21 h

B5: ACI-1113D10_4317A4 (bispecific antibody, V domains shown)
VH 1: EVQLVESGGGLVQPKGSLKLSCAASGFTFNTYALHWVRQAPGKGLEWVARIRSKSSNYATYYADSVKDRFTISRDDSQSMLYLQMNNLKTEDTGMYYCVRGGVSPFDYWGQGTTLTVSS
VL 1: QIVLTQSPAIMSASPGEKVTMTCSASSSVSYMHWYQQKSGTSPKRWIYDTSKLASGVPARFSGSGSGTSYSLTISSMEAEDSATYYCQQWSNNPPTFGGGTKLEIK
VH 2: EVQLQQSGAELVRPGASVKLSCTASGFNIKDDYMHWVKQRPEQGLEWIGWIDPENGDTEYASKFQGKATMTADTSSNTAYLQLSSLTSEDTAVYYCKTWGTTQALFPYWGQGTLVTVSA
VL 2: DIVMTQSQKFMYTSVGDRVSITCKASQNVGNAVGWYQQKAGQSPKLLIHSASNRYTGVPDRFTGTGSGTDFTLTINNMQSEDLADYFCQQYRSYPLTFGAGTKLELK
notes: biparatopic; Arm A ACI-7067-1113D10-Ab1, Arm B ACI-7088-4317A4-Ab1; engineered constant domains not specified
[2]
  Kd: 0.416 nM
[3]
  Kd: 0.00614 nM
[4]
  fold slower dissociation rate (Kd) from fibrillar than from monomeric alpha-synuclein: ≥ 100 fold
[5]
  koff: 0.000514 s⁻¹
  kon: 1.23e+06 M⁻¹ s⁻¹
[6]
  koff: 3.48e-07 s⁻¹
  kon: 56800 M⁻¹ s⁻¹

B6: ACI-5A12_3108C10 (bispecific antibody, V domains shown)
VH 1: QVHLKQSGADLVRPGASVKLSCKASGYTFTDYYINWVKQRPGQGLEWIARIYPGSGNTYYNEKFKGRATLSAEKSSTTAYMQLSSLTSEDSAVYFCVVGYYGAWGQGTTLTVSS
VL 1: DVVMTQTPLSLPVSLGDQASISCRSSQSLVHSNGKTHLHWYLQKPGQSPKLLIYKVSNRFSGVPDRFSGSGSGTDFTLKISRVEAEDLGVYFCSQSTHVPWTFGGGTKLEIK
VH 2: ELQLVESGGGLVRPGGSLKLSCATSGFTFRNYAMSWVRQTPAKRLEWVATISDGGTYTFYSDNVKGRFTISRDNVKNTLYLQMSHLKSEDTAMYYCSRAGSGHWGQGTTLTVSS
VL 2: not shown
notes: biparatopic; Arm A ACI-8033-5A12-Ab1, Arm B ACI-7079-3108C10-Ab2; engineered constant domains not specified
[2]
  Kd: 34.5 nM
[3]
  Kd: 8.21 nM
[4]
  fold slower dissociation rate (Kd) from fibrillar than from monomeric alpha-synuclein: ≥ 100 fold
[7]
  IC50, percentage of de novo alpha-synuclein aggregates formed in cells after immunodepletion of seeds: 22.7 nM
[5]
  koff: > 1 s⁻¹
  kon: > 2.9e+07 M⁻¹ s⁻¹
[6]
  koff: 9.19e-05 s⁻¹
  kon: 11200 M⁻¹ s⁻¹

B7: ACI-4F3_5A12 (bispecific antibody, V domains shown)
VH 1: EVQLQQSGPELVKPGASVKISCKASGYTFTDYYMNWVKQSHGKSLEWIGDINPNTGTNSYNQKFKGRASLTVDKFSSAAYMELRSLTSEDSAVYYCARTGYGDPISSYYYALDYWGQGTSVTVSS
VL 1: DIVMSQSPSSLAVSAGEKVTMSCKSSQSLLNSRTRKNYLAWYQQKPGQSPKLLIYWASTRESGVPDRFTGSGSGTDFTLTISSVQAEDLAVYYCKQSYNLWTFGGGTKLEIK
VH 2: QVHLKQSGADLVRPGASVKLSCKASGYTFTDYYINWVKQRPGQGLEWIARIYPGSGNTYYNEKFKGRATLSAEKSSTTAYMQLSSLTSEDSAVYFCVVGYYGAWGQGTTLTVSS
VL 2: DVVMTQTPLSLPVSLGDQASISCRSSQSLVHSNGKTHLHWYLQKPGQSPKLLIYKVSNRFSGVPDRFSGSGSGTDFTLKISRVEAEDLGVYFCSQSTHVPWTFGGGTKLEIK
[7]
  IC50, percentage of de novo alpha-synuclein aggregates formed in cells after immunodepletion of seeds: 15.2 nM

B8: Fab ACI-7067-1108B11-Ab2 (Fab, V domains shown)
VH: EVQLVESGGGLVQPKGSLKLSCAASGFTFNTYAMHWVRQAPGKGLEWVARIRSKGSNYATNYADSVKDRFTISRDDSQSMLYLQMNNLKTEDTAMYYCVRGHGSSYFSYWGQGTLVTVSA
VL: QIVLTQSPAIMSASPGERITMTCSANSSVTYMHWYQQKSGTSPKRWIYDTSNLASGVPARFSGSGSGTSYSLTISSMEAEDAATYYCQQWKSHPPTFGAGTKLELK
[1]
  aggregation half-time (τ1/2) of seeded alpha-synuclein aggregation, ThT; no antibody 18.0 hours: 22.3 h

B9: ACI-1108B11_27D8 (bispecific antibody, V domains shown)
VH 1: EVQLVESGGGLVQPKGSLKLSCAASGFTFNTYAMHWVRQAPGKGLEWVARIRSKGSNYATNYADSVKDRFTISRDDSQSMLYLQMNNLKTEDTAMYYCVRGHGSSYFSYWGQGTLVTVSA
VL 1: QIVLTQSPAIMSASPGERITMTCSANSSVTYMHWYQQKSGTSPKRWIYDTSNLASGVPARFSGSGSGTSYSLTISSMEAEDAATYYCQQWKSHPPTFGAGTKLELK
VH 2: EVQLVESGGGLVQPKGSLKLSCAASGFTFNTYAMNWVRQAPGKGLEWVARIRSKSNNFATYYADSVKDRFTISRDESESMLYLQMNNLKAEDTAMYYCVRSFDYWGQGTTLTVSS
VL 2: DIKMTQSPSSMYASLGERVTITCKASQDINSYLSWFQQKPGKSPKTLIYRAKRLVDGVPSRFSGSGSGQDYSLTISSLEYEDMGIYYCLQYDEFPFTFGSGTKLEIK
[7]
  IC50, percentage of de novo alpha-synuclein aggregates formed in cells after immunodepletion of seeds: 8.6 nM

B10: ACI-4F3_4317A4 (bispecific antibody, V domains shown)
VH 1: EVQLQQSGPELVKPGASVKISCKASGYTFTDYYMNWVKQSHGKSLEWIGDINPNTGTNSYNQKFKGRASLTVDKFSSAAYMELRSLTSEDSAVYYCARTGYGDPISSYYYALDYWGQGTSVTVSS
VL 1: DIVMSQSPSSLAVSAGEKVTMSCKSSQSLLNSRTRKNYLAWYQQKPGQSPKLLIYWASTRESGVPDRFTGSGSGTDFTLTISSVQAEDLAVYYCKQSYNLWTFGGGTKLEIK
VH 2: EVQLQQSGAELVRPGASVKLSCTASGFNIKDDYMHWVKQRPEQGLEWIGWIDPENGDTEYASKFQGKATMTADTSSNTAYLQLSSLTSEDTAVYYCKTWGTTQALFPYWGQGTLVTVSA
VL 2: DIVMTQSQKFMYTSVGDRVSITCKASQNVGNAVGWYQQKAGQSPKLLIHSASNRYTGVPDRFTGTGSGTDFTLTINNMQSEDLADYFCQQYRSYPLTFGAGTKLELK
notes: biparatopic; Arm A ACI-8033-4F3-Ab1, Arm B ACI-7088-4317A4-Ab1; engineered constant domains not specified
[2]
  Kd: 1.17 nM
[3]
  Kd: 0.00152 nM
[4]
  fold slower dissociation rate (Kd) from fibrillar than from monomeric alpha-synuclein: ≥ 100 fold
[5]
  koff: 0.00103 s⁻¹
  kon: 884000 M⁻¹ s⁻¹
[6]
  koff: 7.84e-08 s⁻¹
  kon: 51700 M⁻¹ s⁻¹
